We go through two molecules from article PMC2568893, “Role of αBI5 and αBT162 residues in subunit interaction during oligomerization of αB-crystallin” (Molecular Vision, 2008).

Data set [1] deals with αBT162C mutant of human αB-crystallin (human) (UniProt P02511). The experiment in a line: FRET or BRET; amine-labelled proteins: Alexa Fluor 350 TFP ester (donor) and Alexa Fluor 488 TFP ester (acceptor); 50 µg of each labelled protein mixed at 37 °C; subunit exchange rate from Ft/F0. Background: Bioluminescence resonance energy transfer reports proximity on the nanometre scale.

Data set [2] deals with the molecule itself. The experiment in a line: SEC-MALS; TSK G5000PWXL column, 100 µg protein, 50 mM phosphate, 150 mM NaCl, 0.02% sodium azide, pH 7.2, with the reducing agent TCEP; without it both Cys mutants formed larger oligomers. A general note: In gel filtration, larger molecules generally elute earlier.

Positions count from the first letter of the chain named. In names and notes the source's numbering stands.

B1: αBI5C mutant of human αB-crystallin (natural protein, UniProt P02511 1-175, looked up)
chain: MDIACHHPWIRRPFFPFHSPSRLFDQFFGEHLLESDLFPTSTSLSPFYLRPPSFLRAPSWFDTGLSEMRLEKDRFSVNLDVKHFSPEELKVKVLGDVIEVHGKHEERQDEHGFISREFHRKYRIPADVDPLTITSSLSSDGVLTVNGPRKQVSGPERTIPITREEKPAVTAAPKK
modifications: FRET assays only: Alexa Fluor 488 or Alexa Fluor 555 C5-maleimide on the cysteine (thiol-labelled), or Alexa Fluor 350 carboxylic acid TFP ester on amines (amine-labelled, donor); unlabelled in the other experiments
notes: human αB-crystallin (HspB5), 175 amino acids, with I5C; cDNA in pET-23d(+); Homo-oligomer, on average 35 subunits when reduced; also called αB5C
Usually stoichiometry N stands for the number of molecules, sites or subunits per partner or assembly. For the molecule B1, in data set [1], the rate of subunit exchange came out at 0.000655 s⁻¹ and the subunit interaction rate is 6.5e-05 s⁻¹. Moreover, in data set [2], the “stoichiometry N” value was found to be 35 subunits.

B2: αBT162C mutant of human αB-crystallin (natural protein, UniProt P02511 1-175, looked up)
chain: B1 chain with C5I, T162C
modifications: FRET assays only: Alexa Fluor 488 or Alexa Fluor 555 C5-maleimide on the cysteine (thiol-labelled), or Alexa Fluor 488 carboxylic acid TFP ester on amines (amine-labelled, acceptor); unlabelled in the other experiments
notes: human αB-crystallin (HspB5), 175 amino acids, with T162C; cDNA in pET-23d(+); Homo-oligomer, on average 35 subunits when reduced; also called αB162C
In the case of B2, in data set [2], the “stoichiometry N” value was determined as 35 subunits.
